Assay results as given in patent US20120148607A1 (ARGEN X N V, published 2012).

Experiments:
Test in all cases: ELISA, 48A2 (2 µg/ml) immobilised, chimera added, streptavidin-HRP
[1] = molecular target: T1, LI9 (aa572-909) llama-human c-Met chimera (human; Llama glama, UniProt P08581 25-595)
T1 construct: range 1-571 (mature numbering, E=1; derived);range 572-909 (mature numbering, E=1); also called Ll9; not shown: Flag and strep tag
Source text: (§1) An ELISA was run to investigate the binding of the mAbs to the different chimeras.

[2] = molecular target: T2, LI10 (aa608-909) llama-human c-Met chimera (human; Llama glama, UniProt P08581 25-631)
T2 construct: range 1-607 (mature numbering, E=1; derived);range 608-909 (mature numbering, E=1); also called Ll10; not shown: Flag and strep tag
T2 sequence (P08581 25-631, change not shown): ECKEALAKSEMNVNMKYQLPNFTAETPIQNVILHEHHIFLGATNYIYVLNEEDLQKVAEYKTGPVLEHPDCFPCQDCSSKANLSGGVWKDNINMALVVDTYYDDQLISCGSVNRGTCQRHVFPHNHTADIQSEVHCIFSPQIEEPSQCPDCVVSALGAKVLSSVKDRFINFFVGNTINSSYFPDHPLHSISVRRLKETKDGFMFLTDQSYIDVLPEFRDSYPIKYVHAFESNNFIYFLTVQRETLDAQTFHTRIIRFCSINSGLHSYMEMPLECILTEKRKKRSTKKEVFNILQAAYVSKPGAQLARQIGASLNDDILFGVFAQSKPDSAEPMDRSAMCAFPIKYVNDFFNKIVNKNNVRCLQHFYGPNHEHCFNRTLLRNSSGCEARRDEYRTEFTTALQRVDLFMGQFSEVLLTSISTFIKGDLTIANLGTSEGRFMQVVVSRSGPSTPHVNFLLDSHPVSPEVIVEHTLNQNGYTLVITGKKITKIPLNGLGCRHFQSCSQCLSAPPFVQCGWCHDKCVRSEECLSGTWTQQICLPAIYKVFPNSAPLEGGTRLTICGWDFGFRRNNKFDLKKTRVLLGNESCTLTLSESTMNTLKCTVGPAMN
Source text: as §1

[3] = molecular target: T3, LI11 (aa634-909) llama-human c-Met chimera (human; Llama glama, UniProt P08581 25-657)
T3 construct: range 1-633 (mature numbering, E=1; derived);range 634-909 (mature numbering, E=1); also called Ll11; not shown: Flag and strep tag
Source text: as §1

[4] = molecular target: T4, LS5 (aa1-448) llama-human c-Met chimera (Llama glama; human, UniProt P08581 473-933)
T4 construct: range 1-448 (mature numbering, E=1);range 449-909 (mature numbering, E=1; derived); not shown: Flag and strep tag
T4 sequence (P08581 473-933, change not shown): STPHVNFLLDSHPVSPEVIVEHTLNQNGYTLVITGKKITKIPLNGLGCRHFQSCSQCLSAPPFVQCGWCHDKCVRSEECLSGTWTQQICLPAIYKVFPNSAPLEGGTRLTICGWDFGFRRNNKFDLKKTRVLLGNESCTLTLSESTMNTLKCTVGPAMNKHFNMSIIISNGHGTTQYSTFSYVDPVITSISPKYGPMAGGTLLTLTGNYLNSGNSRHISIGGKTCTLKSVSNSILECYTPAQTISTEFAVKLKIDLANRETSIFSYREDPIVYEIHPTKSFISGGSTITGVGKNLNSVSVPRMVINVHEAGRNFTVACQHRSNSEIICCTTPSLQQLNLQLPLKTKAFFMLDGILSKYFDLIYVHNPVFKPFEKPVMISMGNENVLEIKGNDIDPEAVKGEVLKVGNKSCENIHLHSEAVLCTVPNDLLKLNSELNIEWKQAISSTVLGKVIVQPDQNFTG
Source text: as §1

[5] = molecular target: T5, LS4 (aa1-348) llama-human c-Met chimera (Llama glama; human, UniProt P08581 373-933)
T5 construct: range 1-348 (mature numbering, E=1);range 349-909 (mature numbering, E=1; derived); not shown: Flag and strep tag
T5 sequence (P08581 373-933, change not shown): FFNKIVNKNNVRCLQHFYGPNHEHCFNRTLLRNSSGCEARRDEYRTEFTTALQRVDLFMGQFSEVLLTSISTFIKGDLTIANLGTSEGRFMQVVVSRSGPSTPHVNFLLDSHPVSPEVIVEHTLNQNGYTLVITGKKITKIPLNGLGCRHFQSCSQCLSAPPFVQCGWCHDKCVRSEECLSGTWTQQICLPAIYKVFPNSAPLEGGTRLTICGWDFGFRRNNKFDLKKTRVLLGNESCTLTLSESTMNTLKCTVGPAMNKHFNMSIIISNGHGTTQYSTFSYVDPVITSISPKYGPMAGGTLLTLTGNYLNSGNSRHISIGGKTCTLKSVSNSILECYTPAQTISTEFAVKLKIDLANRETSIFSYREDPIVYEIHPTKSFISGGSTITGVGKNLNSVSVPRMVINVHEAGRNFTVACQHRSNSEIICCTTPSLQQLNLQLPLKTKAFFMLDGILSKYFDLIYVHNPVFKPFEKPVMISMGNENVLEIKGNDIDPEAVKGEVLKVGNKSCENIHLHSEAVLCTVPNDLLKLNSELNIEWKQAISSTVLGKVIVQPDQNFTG
Source text: as §1

[6] = molecular target: T6, LS2 (aa1-199) llama-human c-Met chimera (Llama glama; human, UniProt P08581 224-933)
T6 construct: range 1-199 (mature numbering, E=1);range 200-909 (mature numbering, E=1; derived); not shown: Flag and strep tag
T6 sequence (P08581 224-933, change not shown): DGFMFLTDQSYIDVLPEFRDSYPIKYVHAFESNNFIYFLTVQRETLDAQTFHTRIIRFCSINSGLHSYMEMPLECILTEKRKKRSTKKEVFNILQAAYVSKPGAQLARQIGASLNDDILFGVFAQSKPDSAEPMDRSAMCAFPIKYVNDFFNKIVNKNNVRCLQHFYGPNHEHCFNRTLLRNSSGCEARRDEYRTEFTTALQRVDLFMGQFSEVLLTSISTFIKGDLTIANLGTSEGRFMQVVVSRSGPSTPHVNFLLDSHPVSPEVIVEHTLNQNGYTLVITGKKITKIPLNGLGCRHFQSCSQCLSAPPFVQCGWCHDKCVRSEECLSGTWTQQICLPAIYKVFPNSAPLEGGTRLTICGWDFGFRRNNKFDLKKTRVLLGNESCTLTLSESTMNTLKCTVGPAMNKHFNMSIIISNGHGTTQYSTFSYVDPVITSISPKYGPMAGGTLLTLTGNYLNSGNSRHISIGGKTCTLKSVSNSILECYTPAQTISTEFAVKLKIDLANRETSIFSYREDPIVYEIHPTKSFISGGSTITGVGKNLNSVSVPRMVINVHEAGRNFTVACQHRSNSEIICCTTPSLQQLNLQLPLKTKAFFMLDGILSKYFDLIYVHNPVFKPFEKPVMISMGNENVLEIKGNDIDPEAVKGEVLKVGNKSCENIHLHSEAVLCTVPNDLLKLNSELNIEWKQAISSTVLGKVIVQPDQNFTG
Source text: as §1

[7] = molecular target: T7, LS1 (aa1-98) llama-human c-Met chimera (Llama glama; human, UniProt P08581 123-933)
T7 construct: range 1-98 (mature numbering, E=1);range 99-909 (mature numbering, E=1; derived); not shown: Flag and strep tag
T7 sequence (P08581 123-933, change not shown): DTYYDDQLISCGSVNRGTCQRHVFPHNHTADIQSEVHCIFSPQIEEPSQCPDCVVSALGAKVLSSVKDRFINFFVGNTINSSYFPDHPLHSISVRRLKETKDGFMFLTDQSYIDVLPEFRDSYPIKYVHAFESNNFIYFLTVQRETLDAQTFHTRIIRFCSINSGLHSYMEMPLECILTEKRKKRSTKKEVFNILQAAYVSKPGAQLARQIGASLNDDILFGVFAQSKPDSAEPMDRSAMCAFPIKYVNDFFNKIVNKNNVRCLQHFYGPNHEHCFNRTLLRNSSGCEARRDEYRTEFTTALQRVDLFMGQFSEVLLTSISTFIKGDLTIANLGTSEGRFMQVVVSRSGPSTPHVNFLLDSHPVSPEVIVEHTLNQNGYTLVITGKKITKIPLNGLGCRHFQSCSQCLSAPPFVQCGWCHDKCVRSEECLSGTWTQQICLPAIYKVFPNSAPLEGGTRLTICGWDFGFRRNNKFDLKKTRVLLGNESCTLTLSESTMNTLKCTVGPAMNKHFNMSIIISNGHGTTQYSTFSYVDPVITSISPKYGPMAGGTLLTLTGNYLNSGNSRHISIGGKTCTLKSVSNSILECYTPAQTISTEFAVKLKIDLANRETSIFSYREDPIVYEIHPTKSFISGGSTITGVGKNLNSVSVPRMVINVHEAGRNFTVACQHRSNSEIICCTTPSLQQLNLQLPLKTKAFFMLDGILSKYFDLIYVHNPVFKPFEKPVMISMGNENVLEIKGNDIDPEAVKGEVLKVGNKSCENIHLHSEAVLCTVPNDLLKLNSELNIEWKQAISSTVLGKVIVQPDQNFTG
Source text: as §1

[8] = molecular target: T8, LS3 (aa1-287) llama-human c-Met chimera (Llama glama; human, UniProt P08581 312-933)
T8 construct: range 1-287 (mature numbering, E=1);range 288-909 (mature numbering, E=1; derived); not shown: Flag and strep tag
T8 sequence (P08581 312-933, change not shown): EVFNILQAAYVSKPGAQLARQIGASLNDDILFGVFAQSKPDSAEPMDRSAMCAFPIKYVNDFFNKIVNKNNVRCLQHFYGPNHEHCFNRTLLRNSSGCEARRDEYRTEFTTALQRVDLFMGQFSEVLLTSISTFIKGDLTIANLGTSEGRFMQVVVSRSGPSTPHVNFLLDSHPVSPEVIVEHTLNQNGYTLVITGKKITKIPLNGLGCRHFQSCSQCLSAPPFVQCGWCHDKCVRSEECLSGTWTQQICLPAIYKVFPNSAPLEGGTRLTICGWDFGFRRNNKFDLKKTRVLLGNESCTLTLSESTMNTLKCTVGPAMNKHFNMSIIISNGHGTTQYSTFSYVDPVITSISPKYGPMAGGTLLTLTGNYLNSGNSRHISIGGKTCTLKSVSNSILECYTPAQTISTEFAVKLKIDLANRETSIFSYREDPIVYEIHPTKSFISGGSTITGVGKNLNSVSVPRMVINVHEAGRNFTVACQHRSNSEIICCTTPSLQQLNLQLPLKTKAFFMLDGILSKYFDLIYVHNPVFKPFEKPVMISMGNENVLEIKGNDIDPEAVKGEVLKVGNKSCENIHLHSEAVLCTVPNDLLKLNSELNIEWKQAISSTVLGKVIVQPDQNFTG
Source text: as §1

[9] = molecular target: T9, LI8 (aa540-909) llama-human c-Met chimera (human; Llama glama, UniProt P08581 25-563)
T9 construct: range 1-539 (mature numbering, E=1; derived);range 540-909 (mature numbering, E=1); also called Ll8; not shown: Flag and strep tag
T9 sequence (P08581 25-563, change not shown): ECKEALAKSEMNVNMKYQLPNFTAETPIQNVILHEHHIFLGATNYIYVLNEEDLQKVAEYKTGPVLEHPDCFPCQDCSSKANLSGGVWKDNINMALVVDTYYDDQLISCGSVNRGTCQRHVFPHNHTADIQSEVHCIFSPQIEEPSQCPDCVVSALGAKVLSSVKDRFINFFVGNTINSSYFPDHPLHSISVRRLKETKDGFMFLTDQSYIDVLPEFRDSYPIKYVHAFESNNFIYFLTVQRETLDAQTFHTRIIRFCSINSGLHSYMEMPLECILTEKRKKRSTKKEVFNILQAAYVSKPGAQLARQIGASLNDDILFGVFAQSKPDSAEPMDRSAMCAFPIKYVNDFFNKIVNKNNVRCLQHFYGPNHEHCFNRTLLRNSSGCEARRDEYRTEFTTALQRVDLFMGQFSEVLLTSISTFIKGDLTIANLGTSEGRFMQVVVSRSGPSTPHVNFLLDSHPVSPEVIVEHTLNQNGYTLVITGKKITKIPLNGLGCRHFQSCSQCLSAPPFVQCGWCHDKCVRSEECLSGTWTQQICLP
Source text: as §1

T1 sequence (P08581 25-595, change not shown): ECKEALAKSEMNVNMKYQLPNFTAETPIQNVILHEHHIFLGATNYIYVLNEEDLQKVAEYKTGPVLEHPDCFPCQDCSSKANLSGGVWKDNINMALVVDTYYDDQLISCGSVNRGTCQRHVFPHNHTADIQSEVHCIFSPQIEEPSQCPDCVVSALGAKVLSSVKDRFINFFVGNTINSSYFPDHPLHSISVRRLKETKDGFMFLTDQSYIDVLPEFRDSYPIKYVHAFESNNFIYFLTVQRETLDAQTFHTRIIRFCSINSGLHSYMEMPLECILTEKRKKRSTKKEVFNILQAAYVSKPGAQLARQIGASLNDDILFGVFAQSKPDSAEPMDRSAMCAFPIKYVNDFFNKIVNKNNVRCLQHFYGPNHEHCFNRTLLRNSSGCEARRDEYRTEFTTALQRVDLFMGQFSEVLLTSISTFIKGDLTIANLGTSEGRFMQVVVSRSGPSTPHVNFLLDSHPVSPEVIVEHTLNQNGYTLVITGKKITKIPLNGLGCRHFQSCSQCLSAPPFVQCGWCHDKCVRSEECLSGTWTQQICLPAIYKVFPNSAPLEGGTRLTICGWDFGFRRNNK

EC50 [1]: > 0.04 µg/mL
EC50 [2]: > 0.04 µg/mL
EC50 [3]: 0.042 µg/mL
EC50 [4]: 0.05 µg/mL
EC50 [5]: 0.07 µg/mL
EC50 [6]: 0.034 µg/mL
EC50 [7]: 0.031 µg/mL
EC50 [8]: 0.05 µg/mL
EC50 [9]: > 0.04 µg/mL
B1: 48A2 mAb (antibody, V domains shown)
VH: EVQLVQPGVELRNPGASVKVSCKASGYIFTMNSIDWVRQAPGQGLEWMGRIDPEDGGTKYAQKFQGRVTFTADTSTSTAYVELNSLRSEDTAVYYCARVDDYYLGYDYWGQGTQVTVSS
VL: DIVMTQTPTSVTASAGDKVTINCKSSQSVLFSSNQKNYLAWYQQRLGQSPRLLIYWASIRESGVPDRFSGSGSATDFTLTISNFQPEDAAVYYCQQGYSFPYSFGSGTRLEIR
